# Experimental data: patent US20200199241A1 (Chugai, published 2020)
# T1: human FcγRIIb (human, UniProt P31994 43-217, limits assumed)
# T1 construct: also called FcgRIIb
# T1 sequence: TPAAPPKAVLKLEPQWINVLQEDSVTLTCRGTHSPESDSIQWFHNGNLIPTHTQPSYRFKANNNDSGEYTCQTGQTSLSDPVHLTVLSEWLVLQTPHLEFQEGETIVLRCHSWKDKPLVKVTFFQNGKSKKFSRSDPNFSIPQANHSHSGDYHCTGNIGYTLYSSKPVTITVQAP
# T2: human FcγRIIa(R) (human, UniProt P12318 36-217)
# T2 construct: also called FcgRIIaR; FcγRIIa type R
# T2 chain: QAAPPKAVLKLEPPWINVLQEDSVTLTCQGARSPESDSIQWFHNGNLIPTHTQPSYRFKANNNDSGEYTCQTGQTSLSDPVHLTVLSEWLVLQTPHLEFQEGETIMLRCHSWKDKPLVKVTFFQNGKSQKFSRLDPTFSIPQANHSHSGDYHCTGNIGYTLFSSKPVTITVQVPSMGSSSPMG
# T3: human FcγRIIa(H) (human, UniProt P12318 36-217)
# T3 construct: also called FcgRIIaH; FcγRIIa type H
# T3 sequence: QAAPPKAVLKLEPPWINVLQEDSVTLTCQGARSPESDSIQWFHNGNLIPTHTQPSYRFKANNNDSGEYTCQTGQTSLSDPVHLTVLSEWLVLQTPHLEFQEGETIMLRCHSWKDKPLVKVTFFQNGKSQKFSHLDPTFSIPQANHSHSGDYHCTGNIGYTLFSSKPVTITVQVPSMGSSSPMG
# Tests used:
# Assay in all cases: SPR (Biacore);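 also: antibody variants captured on sensor chip, Fcγ receptor flowed over at 25 °C, bound receptor normalized to amount of captured antibody, expressed relative to reference antibody set as 100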
# [1] = molecular target: T4, human FcγRIa (human, UniProt P12314 16-292, limits assumed)
# T4 construct: also called FcgRIa; FcγRI (CD64)
# T4 sequence (P12314 16-292 limits assumed): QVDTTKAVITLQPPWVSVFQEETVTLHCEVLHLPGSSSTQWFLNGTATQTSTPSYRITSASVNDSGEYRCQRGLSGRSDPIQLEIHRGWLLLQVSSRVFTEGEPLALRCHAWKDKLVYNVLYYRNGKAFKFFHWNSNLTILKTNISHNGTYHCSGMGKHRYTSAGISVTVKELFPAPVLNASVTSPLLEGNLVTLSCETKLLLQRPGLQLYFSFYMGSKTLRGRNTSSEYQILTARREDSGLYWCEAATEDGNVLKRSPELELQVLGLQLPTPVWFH
# [2] = molecular target: T1, human FcγRIIb
# [3] = molecular target: T5, human FcγRIIIa(F) (human, UniProt P08637 17-208, limits assumed)
# T5 construct: also called FcgRIIIaF; allotype F158
# T5 sequence (P08637 other isoform, or with tags, fused parts or gaps limits assumed): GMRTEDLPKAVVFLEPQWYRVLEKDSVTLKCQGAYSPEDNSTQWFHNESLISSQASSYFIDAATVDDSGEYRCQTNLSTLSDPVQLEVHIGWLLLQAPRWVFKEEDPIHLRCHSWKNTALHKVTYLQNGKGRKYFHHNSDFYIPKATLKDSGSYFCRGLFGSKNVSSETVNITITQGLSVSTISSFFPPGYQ
# [4] = molecular target: T2, human FcγRIIa(R)
# [5] = molecular target: T3, human FcγRIIa(H)
relative binding activity [1],relative binding activity [2],relative binding activity [3],relative binding activity [4],relative binding activity [5],Binder
45 % of GpH7-B3/GpL16-k0,-5 % of GpH7-B3/GpL16-k0,5 % of GpH7-B3/GpL16-k0,-4 % of GpH7-B3/GpL16-k0,16 % of GpH7-B3/GpL16-k0,"GpH7-B3 variant D270K/GpL16-k0 (antibody, human IgG1, copies: 2 + 2) heavy: not shown light: DIVMTQSPLSLPVTPGEPASISCQASESLVHSNRNTYLHWYLQKPGQSPQLLIYKVSNRFSGVPDRFSGSGSGTDFTLKISRVEAEDVGVYYCSQNTHVPPTFGQGTKVEIE"
93 % of GpH7-B3/GpL16-k0,26 % of GpH7-B3/GpL16-k0,14 % of GpH7-B3/GpL16-k0,34 % of GpH7-B3/GpL16-k0,33 % of GpH7-B3/GpL16-k0,"GpH7-B3 variant E269P/GpL16-k0 (antibody, human IgG1, copies: 2 + 2) heavy: not shown light: DIVMTQSPLSLPVTPGEPASISCQASESLVHSNRNTYLHWYLQKPGQSPQLLIYKVSNRFSGVPDRFSGSGSGTDFTLKISRVEAEDVGVYYCSQNTHVPPTFGQGTKVEIE"
64 % of GpH7-B3/GpL16-k0,-1 % of GpH7-B3/GpL16-k0,-1 % of GpH7-B3/GpL16-k0,-3 % of GpH7-B3/GpL16-k0,0 % of GpH7-B3/GpL16-k0,"GpH7-B3 variant D270P/GpL16-k0 (antibody, human IgG1, copies: 2 + 2) heavy: not shown light: DIVMTQSPLSLPVTPGEPASISCQASESLVHSNRNTYLHWYLQKPGQSPQLLIYKVSNRFSGVPDRFSGSGSGTDFTLKISRVEAEDVGVYYCSQNTHVPPTFGQGTKVEIE"
72 % of GpH7-B3/GpL16-k0,0 % of GpH7-B3/GpL16-k0,7 % of GpH7-B3/GpL16-k0,2 % of GpH7-B3/GpL16-k0,13 % of GpH7-B3/GpL16-k0,"GpH7-B3 variant E269R/GpL16-k0 (antibody, human IgG1, copies: 2 + 2) heavy: not shown light: DIVMTQSPLSLPVTPGEPASISCQASESLVHSNRNTYLHWYLQKPGQSPQLLIYKVSNRFSGVPDRFSGSGSGTDFTLKISRVEAEDVGVYYCSQNTHVPPTFGQGTKVEIE"
99 % of GpH7-B3/GpL16-k0,13 % of GpH7-B3/GpL16-k0,10 % of GpH7-B3/GpL16-k0,19 % of GpH7-B3/GpL16-k0,41 % of GpH7-B3/GpL16-k0,"GpH7-B3 variant E269F/GpL16-k0 (antibody, human IgG1, copies: 2 + 2) heavy: not shown light: DIVMTQSPLSLPVTPGEPASISCQASESLVHSNRNTYLHWYLQKPGQSPQLLIYKVSNRFSGVPDRFSGSGSGTDFTLKISRVEAEDVGVYYCSQNTHVPPTFGQGTKVEIE"
96 % of GpH7-B3/GpL16-k0,13 % of GpH7-B3/GpL16-k0,38 % of GpH7-B3/GpL16-k0,24 % of GpH7-B3/GpL16-k0,64 % of GpH7-B3/GpL16-k0,"GpH7-B3 variant E269Q/GpL16-k0 (antibody, human IgG1, copies: 2 + 2) heavy: not shown light: DIVMTQSPLSLPVTPGEPASISCQASESLVHSNRNTYLHWYLQKPGQSPQLLIYKVSNRFSGVPDRFSGSGSGTDFTLKISRVEAEDVGVYYCSQNTHVPPTFGQGTKVEIE"
18 % of GpH7-B3/GpL16-k0,4 % of GpH7-B3/GpL16-k0,1 % of GpH7-B3/GpL16-k0,20 % of GpH7-B3/GpL16-k0,23 % of GpH7-B3/GpL16-k0,"GpH7-B3 variant G236L/GpL16-k0 (antibody, human IgG1, copies: 2 + 2) heavy: not shown light: DIVMTQSPLSLPVTPGEPASISCQASESLVHSNRNTYLHWYLQKPGQSPQLLIYKVSNRFSGVPDRFSGSGSGTDFTLKISRVEAEDVGVYYCSQNTHVPPTFGQGTKVEIE"
93 % of GpH7-B3/GpL16-k0,19 % of GpH7-B3/GpL16-k0,29 % of GpH7-B3/GpL16-k0,33 % of GpH7-B3/GpL16-k0,48 % of GpH7-B3/GpL16-k0,"GpH7-B3 variant E2698/GpL16-k0 (antibody, human IgG1, read as E269S (misprint of S as 8); copies: 2 + 2) heavy: not shown light: DIVMTQSPLSLPVTPGEPASISCQASESLVHSNRNTYLHWYLQKPGQSPQLLIYKVSNRFSGVPDRFSGSGSGTDFTLKISRVEAEDVGVYYCSQNTHVPPTFGQGTKVEIE"
94 % of GpH7-B3/GpL16-k0,25 % of GpH7-B3/GpL16-k0,27 % of GpH7-B3/GpL16-k0,38 % of GpH7-B3/GpL16-k0,46 % of GpH7-B3/GpL16-k0,"GpH7-B3 variant E269G/GpL16-k0 (antibody, human IgG1, copies: 2 + 2) heavy: not shown light: DIVMTQSPLSLPVTPGEPASISCQASESLVHSNRNTYLHWYLQKPGQSPQLLIYKVSNRFSGVPDRFSGSGSGTDFTLKISRVEAEDVGVYYCSQNTHVPPTFGQGTKVEIE"
93 % of GpH7-B3/GpL16-k0,19 % of GpH7-B3/GpL16-k0,26 % of GpH7-B3/GpL16-k0,35 % of GpH7-B3/GpL16-k0,39 % of GpH7-B3/GpL16-k0,"GpH7-B3 variant E269T/GpL16-k0 (antibody, human IgG1, copies: 2 + 2) heavy: not shown light: DIVMTQSPLSLPVTPGEPASISCQASESLVHSNRNTYLHWYLQKPGQSPQLLIYKVSNRFSGVPDRFSGSGSGTDFTLKISRVEAEDVGVYYCSQNTHVPPTFGQGTKVEIE"
81 % of GpH7-B3/GpL16-k0,15 % of GpH7-B3/GpL16-k0,24 % of GpH7-B3/GpL16-k0,23 % of GpH7-B3/GpL16-k0,68 % of GpH7-B3/GpL16-k0,"GpH7-B3 variant G236F/GpL16-k0 (antibody, human IgG1, copies: 2 + 2) heavy: not shown light: DIVMTQSPLSLPVTPGEPASISCQASESLVHSNRNTYLHWYLQKPGQSPQLLIYKVSNRFSGVPDRFSGSGSGTDFTLKISRVEAEDVGVYYCSQNTHVPPTFGQGTKVEIE"
34 % of GpH7-B3/GpL16-k0,6 % of GpH7-B3/GpL16-k0,7 % of GpH7-B3/GpL16-k0,32 % of GpH7-B3/GpL16-k0,91 % of GpH7-B3/GpL16-k0,"GpH7-B3 variant G236H/GpL16-k0 (antibody, human IgG1, copies: 2 + 2) heavy: not shown light: DIVMTQSPLSLPVTPGEPASISCQASESLVHSNRNTYLHWYLQKPGQSPQLLIYKVSNRFSGVPDRFSGSGSGTDFTLKISRVEAEDVGVYYCSQNTHVPPTFGQGTKVEIE"
93 % of GpH7-B3/GpL16-k0,13 % of GpH7-B3/GpL16-k0,28 % of GpH7-B3/GpL16-k0,20 % of GpH7-B3/GpL16-k0,51 % of GpH7-B3/GpL16-k0,"GpH7-B3 variant E269A/GpL16-k0 (antibody, human IgG1, copies: 2 + 2) heavy: not shown light: DIVMTQSPLSLPVTPGEPASISCQASESLVHSNRNTYLHWYLQKPGQSPQLLIYKVSNRFSGVPDRFSGSGSGTDFTLKISRVEAEDVGVYYCSQNTHVPPTFGQGTKVEIE"
74 % of GpH7-B3/GpL16-k0,2 % of GpH7-B3/GpL16-k0,7 % of GpH7-B3/GpL16-k0,-2 % of GpH7-B3/GpL16-k0,38 % of GpH7-B3/GpL16-k0,"GpH7-B3 variant D270W/GpL16-k0 (antibody, human IgG1, copies: 2 + 2) heavy: not shown light: DIVMTQSPLSLPVTPGEPASISCQASESLVHSNRNTYLHWYLQKPGQSPQLLIYKVSNRFSGVPDRFSGSGSGTDFTLKISRVEAEDVGVYYCSQNTHVPPTFGQGTKVEIE"
90 % of GpH7-B3/GpL16-k0,15 % of GpH7-B3/GpL16-k0,21 % of GpH7-B3/GpL16-k0,24 % of GpH7-B3/GpL16-k0,31 % of GpH7-B3/GpL16-k0,"GpH7-B3 variant E269N/GpL16-k0 (antibody, human IgG1, copies: 2 + 2) heavy: not shown light: DIVMTQSPLSLPVTPGEPASISCQASESLVHSNRNTYLHWYLQKPGQSPQLLIYKVSNRFSGVPDRFSGSGSGTDFTLKISRVEAEDVGVYYCSQNTHVPPTFGQGTKVEIE"
70 % of GpH7-B3/GpL16-k0,14 % of GpH7-B3/GpL16-k0,9 % of GpH7-B3/GpL16-k0,23 % of GpH7-B3/GpL16-k0,42 % of GpH7-B3/GpL16-k0,"GpH7-B3 variant G236M/GpL16-k0 (antibody, human IgG1, copies: 2 + 2) heavy: not shown light: DIVMTQSPLSLPVTPGEPASISCQASESLVHSNRNTYLHWYLQKPGQSPQLLIYKVSNRFSGVPDRFSGSGSGTDFTLKISRVEAEDVGVYYCSQNTHVPPTFGQGTKVEIE"
97 % of GpH7-B3/GpL16-k0,13 % of GpH7-B3/GpL16-k0,14 % of GpH7-B3/GpL16-k0,21 % of GpH7-B3/GpL16-k0,43 % of GpH7-B3/GpL16-k0,"GpH7-B3 variant E269Y/GpL16-k0 (antibody, human IgG1, copies: 2 + 2) heavy: not shown light: DIVMTQSPLSLPVTPGEPASISCQASESLVHSNRNTYLHWYLQKPGQSPQLLIYKVSNRFSGVPDRFSGSGSGTDFTLKISRVEAEDVGVYYCSQNTHVPPTFGQGTKVEIE"
45 % of GpH7-B3/GpL16-k0,-5 % of GpH7-B3/GpL16-k0,2 % of GpH7-B3/GpL16-k0,-5 % of GpH7-B3/GpL16-k0,11 % of GpH7-B3/GpL16-k0,"GpH7-B3 variant D270R/GpL16-k0 (antibody, human IgG1, copies: 2 + 2) heavy: not shown light: DIVMTQSPLSLPVTPGEPASISCQASESLVHSNRNTYLHWYLQKPGQSPQLLIYKVSNRFSGVPDRFSGSGSGTDFTLKISRVEAEDVGVYYCSQNTHVPPTFGQGTKVEIE"
92 % of GpH7-B3/GpL16-k0,10 % of GpH7-B3/GpL16-k0,12 % of GpH7-B3/GpL16-k0,16 % of GpH7-B3/GpL16-k0,35 % of GpH7-B3/GpL16-k0,"GpH7-B3 variant E269V/GpL16-k0 (antibody, human IgG1, copies: 2 + 2) heavy: not shown light: DIVMTQSPLSLPVTPGEPASISCQASESLVHSNRNTYLHWYLQKPGQSPQLLIYKVSNRFSGVPDRFSGSGSGTDFTLKISRVEAEDVGVYYCSQNTHVPPTFGQGTKVEIE"
98 % of GpH7-B3/GpL16-k0,15 % of GpH7-B3/GpL16-k0,20 % of GpH7-B3/GpL16-k0,23 % of GpH7-B3/GpL16-k0,50 % of GpH7-B3/GpL16-k0,"GpH7-B3 variant E269M/GpL16-k0 (antibody, human IgG1, copies: 2 + 2) heavy: not shown light: DIVMTQSPLSLPVTPGEPASISCQASESLVHSNRNTYLHWYLQKPGQSPQLLIYKVSNRFSGVPDRFSGSGSGTDFTLKISRVEAEDVGVYYCSQNTHVPPTFGQGTKVEIE"
98 % of GpH7-B3/GpL16-k0,12 % of GpH7-B3/GpL16-k0,10 % of GpH7-B3/GpL16-k0,20 % of GpH7-B3/GpL16-k0,40 % of GpH7-B3/GpL16-k0,"GpH7-B3 variant E269L/GpL16-k0 (antibody, human IgG1, copies: 2 + 2) heavy: not shown light: DIVMTQSPLSLPVTPGEPASISCQASESLVHSNRNTYLHWYLQKPGQSPQLLIYKVSNRFSGVPDRFSGSGSGTDFTLKISRVEAEDVGVYYCSQNTHVPPTFGQGTKVEIE"
